Data reported in patent US20140288149A1.

Target: IL-7 receptor (IL-7R), mouse (mouse) (UniProt P16872)
Assay: cell-based or functional assay

UniProt P16872, sequence (P16872 21-459, chain 1 of 2): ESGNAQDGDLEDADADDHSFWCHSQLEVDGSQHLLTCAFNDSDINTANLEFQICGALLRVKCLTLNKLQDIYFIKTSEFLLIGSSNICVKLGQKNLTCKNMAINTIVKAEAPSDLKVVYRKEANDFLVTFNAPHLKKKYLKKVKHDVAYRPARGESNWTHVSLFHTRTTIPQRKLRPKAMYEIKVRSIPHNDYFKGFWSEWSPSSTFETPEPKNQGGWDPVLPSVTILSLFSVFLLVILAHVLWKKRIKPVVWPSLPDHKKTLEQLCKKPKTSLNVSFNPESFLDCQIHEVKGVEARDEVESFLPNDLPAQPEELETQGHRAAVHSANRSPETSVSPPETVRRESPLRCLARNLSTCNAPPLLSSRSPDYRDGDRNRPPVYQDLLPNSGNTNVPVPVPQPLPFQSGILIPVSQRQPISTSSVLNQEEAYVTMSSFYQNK
UniProt P16872, sequence (P34902 23-369, chain 2 of 2, further chain): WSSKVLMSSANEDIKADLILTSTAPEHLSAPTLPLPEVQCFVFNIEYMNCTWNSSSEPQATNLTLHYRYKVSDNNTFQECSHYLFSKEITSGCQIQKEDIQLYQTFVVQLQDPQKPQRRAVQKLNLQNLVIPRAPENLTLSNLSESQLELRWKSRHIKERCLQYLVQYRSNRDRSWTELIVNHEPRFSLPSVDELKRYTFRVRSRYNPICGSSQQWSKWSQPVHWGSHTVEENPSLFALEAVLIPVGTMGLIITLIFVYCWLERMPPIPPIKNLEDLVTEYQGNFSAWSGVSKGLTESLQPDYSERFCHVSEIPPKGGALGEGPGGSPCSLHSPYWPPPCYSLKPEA

- percentage of cells positive for pSTAT5 (flow cytometry / ImageStream), WT CD4+ T cells, 30 minutes of culture with IL-7: > 71%
- percentage of cells positive for pSTAT5 (flow cytometry / ImageStream), mir-142-/- CD4+ T cells, 30 minutes of culture with IL-7: 8.7%
Substance: recombinant mouse IL-7 (from UniProt P10168 26-154) (ligand)
